In paper PMC9424959, “Single mutations toggle the substrate selectivity of multifunctional Camptotheca secologanic acid synthases” (The Journal of Biological Chemistry, 2022):
Changes are numbered by the printed parent chain. In names and notes the source's numbering stands.

Assays:
CYP72A564 [1] = molecular target: T1, CYP72A564 (Camptotheca acuminata, UniProt A0A7G8Z808); assay: LC-MS of secologanin formed, reconstituted with CPR1; format: biochemical; conditions: 250 uM substrate, 500 uM NADPH, Camptotheca CPR1, DLPC, 100 mM NaPO4 pH 7.5, 30 °C, 120 min
T1 construct: full-length ORF, C-terminal His6, in pCWori, expressed in E. coli, purified; kinetics with Camptotheca CPR1 and DLPC
T1 sequence (A0A7G8Z808 entry or part of it): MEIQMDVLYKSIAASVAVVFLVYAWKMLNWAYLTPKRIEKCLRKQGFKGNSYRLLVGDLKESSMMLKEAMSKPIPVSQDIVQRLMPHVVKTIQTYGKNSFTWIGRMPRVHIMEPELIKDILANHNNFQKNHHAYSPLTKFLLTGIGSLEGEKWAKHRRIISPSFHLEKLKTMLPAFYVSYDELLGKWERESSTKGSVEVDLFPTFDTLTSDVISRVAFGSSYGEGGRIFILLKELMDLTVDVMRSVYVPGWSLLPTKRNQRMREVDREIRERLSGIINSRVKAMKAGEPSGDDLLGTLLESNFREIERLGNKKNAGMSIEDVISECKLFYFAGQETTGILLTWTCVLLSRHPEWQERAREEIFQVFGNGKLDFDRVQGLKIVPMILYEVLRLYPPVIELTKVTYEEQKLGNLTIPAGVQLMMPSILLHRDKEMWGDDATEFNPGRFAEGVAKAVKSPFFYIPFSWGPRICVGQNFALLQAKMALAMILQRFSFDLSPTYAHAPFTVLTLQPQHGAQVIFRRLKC

CYP72A565 [2] = molecular target: T2, CYP72A565 (Camptotheca acuminata, UniProt A0A4Y5UJ61); assay: as above; format: biochemical; conditions: 250 uM substrate, 500 uM NADPH, Camptotheca CPR1, DLPC, 100 mM NaPO4 pH 7.5, 30 °C, 120 min
T2 construct: full-length ORF, C-terminal His6, in pCWori, expressed in E. coli, purified; kinetics with Camptotheca CPR1 and DLPC
T2 sequence (A0A4Y5UJ61 entry or part of it): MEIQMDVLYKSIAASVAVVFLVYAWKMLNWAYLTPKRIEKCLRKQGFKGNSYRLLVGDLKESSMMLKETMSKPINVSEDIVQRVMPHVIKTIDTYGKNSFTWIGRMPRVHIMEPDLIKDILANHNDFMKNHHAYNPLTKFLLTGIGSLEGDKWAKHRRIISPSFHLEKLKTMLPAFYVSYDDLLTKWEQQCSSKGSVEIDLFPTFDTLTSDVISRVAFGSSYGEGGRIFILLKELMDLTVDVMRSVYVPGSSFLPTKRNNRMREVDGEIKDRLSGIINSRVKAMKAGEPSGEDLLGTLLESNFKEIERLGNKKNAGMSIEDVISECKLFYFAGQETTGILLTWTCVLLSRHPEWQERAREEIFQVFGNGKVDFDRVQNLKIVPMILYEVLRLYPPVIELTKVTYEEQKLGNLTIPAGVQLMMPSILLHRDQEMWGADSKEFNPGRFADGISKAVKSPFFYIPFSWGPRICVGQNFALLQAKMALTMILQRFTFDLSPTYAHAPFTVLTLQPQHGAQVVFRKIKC

CYP72A565 [3] = molecular target: T3, CYP72A565 (Camptotheca acuminata, UniProt A0A4Y5UJ61, H131F); assay: Type I difference spectral titration; format: binding; conditions: read-out: Ks/mM
T3 construct: full-length ORF, C-terminal His6, in pCWori, expressed in E. coli, purified; kinetics with Camptotheca CPR1 and DLPC
From the text: (§1) Type I difference spectral titration on CYP72A565

CYP72A565 [4] = molecular target: T4, CYP72A565 (Camptotheca acuminata, UniProt A0A4Y5UJ61, K270T); assay: Type I difference spectral titration; format: binding; conditions: read-out: Ks/mM
T4 construct: full-length ORF, C-terminal His6, in pCWori, expressed in E. coli, purified; kinetics with Camptotheca CPR1 and DLPC
T4 sequence (A0A4Y5UJ61 entry or part of it K270T): as the sequence (A0A4Y5UJ61 entry or part of it) above, with K270T counted along it
From the text: as §1

CYP72A565 [5] = molecular target: T5, CYP72A565 (Camptotheca acuminata, UniProt A0A4Y5UJ61, H131F/H132D); assay: Type I difference spectral titration; format: binding; conditions: read-out: Ks/mM
T5 construct: full-length ORF, C-terminal His6, in pCWori, expressed in E. coli, purified; kinetics with Camptotheca CPR1 and DLPC
T5 sequence (A0A4Y5UJ61 entry or part of it H131F/H132D): as the sequence (A0A4Y5UJ61 entry or part of it) above, with H131F, H132D counted along it
From the text: as §1

CYP72A564 [6] = molecular target: T6, CYP72A564 (Camptotheca acuminata, UniProt A0A7G8Z808, H131F); assay: Type I difference spectral titration; format: binding; conditions: read-out: Ks/mM
T6 construct: full-length ORF, C-terminal His6, in pCWori, expressed in E. coli, purified; kinetics with Camptotheca CPR1 and DLPC
From the text: (§2) Type I difference spectral titration on CYP72A564

CYP72A564 [7] = molecular target: T7, CYP72A564 (Camptotheca acuminata, UniProt A0A7G8Z808, H132D); assay: Type I difference spectral titration; format: binding; conditions: read-out: Ks/mM
T7 construct: full-length ORF, C-terminal His6, in pCWori, expressed in E. coli, purified; kinetics with Camptotheca CPR1 and DLPC
T7 sequence (A0A7G8Z808 entry or part of it H132D): as the sequence (A0A7G8Z808 entry or part of it) above, with H132D counted along it
From the text: as §2

[8] = molecular target: SLS, SLAS common ancestor (node 34) (synthetic construct); assay: Type I difference spectral titration; format: binding; conditions: read-out: Ks/mM
From the text: Type I difference spectral titration on SLS, SLAS common ancestor (node 34)

CYP72A565 [9] = molecular target: T2, CYP72A565; assay: LC-MS of secologanic acid formed, reconstituted with CPR1; format: biochemical; conditions: 250 uM substrate, 500 uM NADPH, Camptotheca CPR1, DLPC, 100 mM NaPO4 pH 7.5, 30 °C, 120 min
CYP72A564 [10] = molecular target: T1, CYP72A564; assay: as above; format: biochemical; conditions: 250 uM substrate, 500 uM NADPH, Camptotheca CPR1, DLPC, 100 mM NaPO4 pH 7.5, 30 °C, 120 min
purified protein [11] = substrate: COC(=O)C1=CO[C@@H](O[C@@H]2O[C@H](CO)[C@@H](O)[C@H](O)[C@H]2O)[C@@H]2[C@@H](C)[C@@H](O)C[C@H]12; assay: purified protein; format: biochemical, Camptotheca acuminata; conditions: ~0.8 mM NADPH, Camptotheca CPR1, 60 uM DLPC, 100 mM NaPO4 pH 7.5, 30 °C
purified protein [12] = substrate: C[C@@H]1[C@H]2[C@H](O[C@@H]3O[C@H](CO)[C@@H](O)[C@H](O)[C@H]3O)OC=C(C(=O)O)[C@H]2C[C@@H]1O; assay: purified protein; format: biochemical, Camptotheca acuminata; conditions: ~0.8 mM NADPH, Camptotheca CPR1, 60 uM DLPC, 100 mM NaPO4 pH 7.5, 30 °C

`COC(=O)C1=CO[C@@H](O[C@@H]2O[C@H](CO)[C@@H](O)[C@H](O)[C@H]2O)[C@@H]2[C@@H](C)[C@@H](O)C[C@H]12` [loganin] was tested, and the “LC-MS of secologanin formed, reconstituted with CPR1” value (CYP72A564 [1]) was “CYP72A564 consistently showed higher SLS and SLAS activity than CYP72A565”, the “LC-MS of secologanin formed, reconstituted with CPR1” value (CYP72A565 [2]) was “CYP72A564 consistently showed higher SLS and SLAS activity than CYP72A565” and the Kd (CYP72A565 [3]) was 0.283 ± 0.013 mM. The Kd (CYP72A565 [4]) was 1.2 ± 0.084 mM, the Kd (CYP72A565 [5]) was 0.345 ± 0.041 mM and the Kd (CYP72A564 [6]) was 0.0547 ± 0.003 mM. For the same molecule, the Kd (CYP72A564 [7]) was 1.19 ± 0.048 mM and the Kd [8] was 2.3 ± 1 mM.

For `C[C@@H]1[C@H]2[C@H](O[C@@H]3O[C@H](CO)[C@@H](O)[C@H](O)[C@H]3O)OC=C(C(=O)O)[C@H]2C[C@@H]1O` [loganic acid], the “LC-MS of secologanic acid formed, reconstituted with CPR1” value (CYP72A565 [9]) was “CYP72A564 consistently showed higher SLS and SLAS activity than CYP72A565” and the “LC-MS of secologanic acid formed, reconstituted with CPR1” value (CYP72A564 [10]) was “CYP72A564 consistently showed higher SLS and SLAS activity than CYP72A565”.

B1: CYP72A565 (Camptotheca acuminata; H131F) (protein)
chain: MEIQMDVLYKSIAASVAVVFLVYAWKMLNWAYLTPKRIEKCLRKQGFKGNSYRLLVGDLKESSMMLKETMSKPINVSEDIVQRVMPHVIKTIDTYGKNSFTWIGRMPRVHIMEPDLIKDILANHNDFMKNFHAYNPLTKFLLTGIGSLEGDKWAKHRRIISPSFHLEKLKTMLPAFYVSYDDLLTKWEQQCSSKGSVEIDLFPTFDTLTSDVISRVAFGSSYGEGGRIFILLKELMDLTVDVMRSVYVPGSSFLPTKRNNRMREVDGEIKDRLSGIINSRVKAMKAGEPSGEDLLGTLLESNFKEIERLGNKKNAGMSIEDVISECKLFYFAGQETTGILLTWTCVLLSRHPEWQERAREEIFQVFGNGKVDFDRVQNLKIVPMILYEVLRLYPPVIELTKVTYEEQKLGNLTIPAGVQLMMPSILLHRDQEMWGADSKEFNPGRFADGISKAVKSPFFYIPFSWGPRICVGQNFALLQAKMALTMILQRFTFDLSPTYAHAPFTVLTLQPQHGAQVVFRKIKC
notes: full-length ORF, C-terminal His6, in pCWori, expressed in E. coli, purified; kinetics with Camptotheca CPR1 and DLPC
With B1 the Km (purified protein [11]) was 290 ± 80 µM, the kcat (purified protein [11]) was 0.128 ± 0.01 s⁻¹ and the kcat/Km (purified protein [11]) was 445 ± 130 M⁻¹ s⁻¹.

B2: CYP72A565 (Camptotheca acuminata; H131F/H132D) (protein)
chain: B1 chain with H132D
notes: as for B1
In the case of B2, the Km (purified protein [11]) is reported as 1710 ± 100 µM, the kcat (purified protein [11]) is reported as 0.53 ± 0.0233 s⁻¹ and the kcat/Km (purified protein [11]) is reported as 280 ± 18.3 M⁻¹ s⁻¹.

B3: CYP72A564 (Camptotheca acuminata; H131F) (protein)
chain: MEIQMDVLYKSIAASVAVVFLVYAWKMLNWAYLTPKRIEKCLRKQGFKGNSYRLLVGDLKESSMMLKEAMSKPIPVSQDIVQRLMPHVVKTIQTYGKNSFTWIGRMPRVHIMEPELIKDILANHNNFQKNFHAYSPLTKFLLTGIGSLEGEKWAKHRRIISPSFHLEKLKTMLPAFYVSYDELLGKWERESSTKGSVEVDLFPTFDTLTSDVISRVAFGSSYGEGGRIFILLKELMDLTVDVMRSVYVPGWSLLPTKRNQRMREVDREIRERLSGIINSRVKAMKAGEPSGDDLLGTLLESNFREIERLGNKKNAGMSIEDVISECKLFYFAGQETTGILLTWTCVLLSRHPEWQERAREEIFQVFGNGKLDFDRVQGLKIVPMILYEVLRLYPPVIELTKVTYEEQKLGNLTIPAGVQLMMPSILLHRDKEMWGDDATEFNPGRFAEGVAKAVKSPFFYIPFSWGPRICVGQNFALLQAKMALAMILQRFSFDLSPTYAHAPFTVLTLQPQHGAQVIFRRLKC
notes: as for B1
B3 showed a Km (purified protein [11]) of 50 ± 10 µM, a kcat (purified protein [11]) of 0.132 ± 0.00333 s⁻¹ and a kcat/Km (purified protein [11]) of 2480 ± 300 M⁻¹ s⁻¹.

B4: CYP72A564 (Camptotheca acuminata; H132D) (protein)
chain: B3 chain with F131H, H132D
notes: as for B1
In the case of B4, the Km (purified protein [11]) is reported as 1440 ± 60 µM, the kcat (purified protein [11]) is reported as 0.228 ± 0.005 s⁻¹ and the kcat/Km (purified protein [11]) is reported as 158 ± 8.33 M⁻¹ s⁻¹.

B5: CYP72A564 (Camptotheca acuminata; R270T) (protein)
chain: B3 chain with F131H, R270T
notes: as for B1
Molecule B5 has a Km (purified protein [12]) of 3540 ± 510 µM, a kcat (purified protein [12]) of 0.333 ± 0.0267 s⁻¹ and a kcat/Km (purified protein [12]) of 95 ± 15 M⁻¹ s⁻¹.
